Source: patent US20210060072A1 (CRISPR THERAPEUTICS, published 2021)

Target: T1, CD70 on CD70-expressing cancer cell lines (A498, ACHN, SK-OV-3, Hs-766T, NCI-H1975, Calu-1, DU 145, MM.1S, … (human, UniProt P32970 1-193))
T1 sequence (looked up): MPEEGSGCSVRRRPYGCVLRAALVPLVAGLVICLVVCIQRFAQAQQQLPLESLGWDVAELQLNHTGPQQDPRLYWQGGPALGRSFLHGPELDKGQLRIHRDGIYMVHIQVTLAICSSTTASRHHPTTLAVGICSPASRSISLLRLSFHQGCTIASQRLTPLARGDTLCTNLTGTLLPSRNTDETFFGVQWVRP
Assay: cell-based or functional assay

B1: anti-CD70 CAR (CD70B scFv with 41BB; CD8 transmembrane domain, 41BB co-stimulatory domain, CD3z signaling domain) (other)
chain: QVQLVQSGAEVKKPGASVKVSCKASGYTFTNYGMNWVRQAPGQGLKWMGWINTYTGEPTYADAFKGRVTMTRDTSISTAYMELSRLRSDDTAVYYCARDYGDYGMDYWGQGTTVTVSSGGGGSGGGGSGGGGSGDIVMTQSPDSLAVSLGERATINCRASKSVSTSGYSFMHWYQQKPGQPPKLLIYLASNLESGVPDRFSGSGSGTDFTLTISSLQAEDVAVYYCQHSREVPWTFGQGTKVEIKSAAAFVPVFLPAKPTTTPAPRPPTPAPTIASQPLSLRPEACRPAAGGAVHTRGLDFACDIYIWAPLAGTCGVLLLSLVITLYCNHRNRKRGRKKLLYIFKQPFMRPVQTTQEEDGCSCRFPEEEEGGCELRVKFSRSADAPAYQQGQNQLYNELNLGRREEYDVLDKRRGRDPEMGGKPRRKNPQEGLYNELQKDKMAEAYSEIGMKGERRRGKGHDGLYQGLSTATKDTYDALHMQALPPR
cell killing, 24 hours of co-culture, A498, ACHN, SK-OV-3 and Hs-766T cells, 1:1 effector:target cell ratio (3xKO and 4xKO CD70 CAR+ T cells): > 50%
cell killing, 24 hours of co-culture, A498, ACHN, SK-OV-3 and Hs-766T cells, 4:1 effector:target cell ratio (3xKO and 4xKO CD70 CAR+ T cells): > 60%
cell killing, 24 hours of co-culture, NCI-H1975, Calu-1 and DU 145 cells, 4:1 effector:target cell ratio: > 30%
cell killing, 96 hours of co-culture, SKOV-3, Hs-766T and NIC-H1975 cells, 1:1 effector:target cell ratio: > 80%
